In paper PMC2957524 one finds Km and kcat data, which are given here for one substance.

As usually defined, the Km is the concentration of substrate that gives half-maximal velocity. For orientation: kcat means the maximal rate divided by the concentration of active sites.

This data set has as its system O=C(O)C(=O)CC1(C(=O)O)C=CC(O)C=C1. Description: purified protein. Particulars: non-aromatizing decarboxylation to endocyclic diene H2HPP. The class given is biochemical, Planktothrix agardhii.

Regarding “AerD (Planktothrix agardhii NIVA-CYA 126/8)”, the Km was 170 ± 3 µM and the kcat came out at 245 ± 1 min⁻¹.
